The Human Domainome abundance scans (Beltran et al. 2025)
± gives the uncertainty stated by the source.

B1: Formin-binding protein 4, residues 200 to 261; numbered along this chain, Q8N3X1 (parent)
chain: SGWQYDTQCSLAGVGIEMGDWQEVWDENTGCYYYWNTQTNEVTWELPQYLATQVQGLQHYQP

Variants of: B1
Assay: abundance fitness (aPCA) (normalised: wild type 0, dead -1); higher = more abundant; growth selection in yeast, the domain comes from the species named
Conditions: Homo sapiens

Abundance fitness: each site, then its substitutions
T43: E -0.053 ± 0.076, F -0.34 ± 0.12, G -0.401 ± 0.072, K -0.172 ± 0.092, L -0.092 ± 0.061, M -0.317 ± 0.088, N -0.263 ± 0.17, Q -0.018 ± 0.1, R -0.262 ± 0.068, S -0.021 ± 0.063, W -0.584 ± 0.11, Y -0.332 ± 0.14
W44: A -0.221 ± 0.083, C -0.078 ± 0.096, D -0.429 ± 0.15, E 0.078 ± 0.086, F -0.121 ± 0.087, G -0.135 ± 0.065, H -0.236 ± 0.14, I -0.503 ± 0.17, K 0.043 ± 0.088, L -0.226 ± 0.062, N 0.068 ± 0.12, P -0.218 ± 0.084, Q -0.061 ± 0.076, R 0.03 ± 0.054, S -0.037 ± 0.064, T -0.077 ± 0.079, V -0.127 ± 0.069, Y 0.089 ± 0.14
E45: A -0.213 ± 0.095, D -0.149 ± 0.12, F -0.398 ± 0.14, G -0.321 ± 0.082, H -0.338 ± 0.16, I -0.089 ± 0.13, K -0.069 ± 0.15, L -0.21 ± 0.069, M -0.325 ± 0.14, N -0.282 ± 0.14, P -0.552 ± 0.15, Q 0.05 ± 0.16, R -0.165 ± 0.074, T -0.076 ± 0.12, V -0.294 ± 0.084, W -0.598 ± 0.13, Y -0.484 ± 0.16
L46: A -0.461 ± 0.092, C -0.309 ± 0.15, D -1.08 ± 0.34, E -0.525 ± 0.12, F -0.46 ± 0.17, G -0.787 ± 0.11, H -0.626 ± 0.35, I -0.245 ± 0.15, K -0.631 ± 0.12, M -0.224 ± 0.088, N -0.625 ± 0.4, P -0.454 ± 0.12, Q -0.264 ± 0.14, R -0.467 ± 0.085, S -0.779 ± 0.12, T -0.229 ± 0.091, V -0.303 ± 0.074, W -0.493 ± 0.1, Y -0.059 ± 0.16
P47: A -0.842 ± 0.15, C -1.22 ± 0.32, D -1.17 ± 0.28, E -0.985 ± 0.22, F -1.1 ± 0.24, G -1.04 ± 0.15, H -1 ± 0.29, I -1.02 ± 0.23, K -0.274 ± 0.17, M -0.721 ± 0.13, Q -1.23 ± 0.33, R -0.895 ± 0.11, S -0.95 ± 0.13, T -1.01 ± 0.19, V -0.583 ± 0.11, W -1.12 ± 0.2, Y -1.11 ± 0.27
Q48: A -0.039 ± 0.082, C -0.147 ± 0.092, D 0.02 ± 0.16, E -0.024 ± 0.11, F -0.293 ± 0.16, G -0.007 ± 0.059, H -0.133 ± 0.15, I -0.262 ± 0.15, K 0.129 ± 0.1, L 0.043 ± 0.062, M 0.085 ± 0.091, N -0.059 ± 0.17, P 0.319 ± 0.079, R -0.061 ± 0.063, S -0.038 ± 0.068, T 0.053 ± 0.09, V -0.127 ± 0.072, W -0.417 ± 0.093, Y 0.23 ± 0.13
Y49: A 0.022 ± 0.086, C -0.069 ± 0.11, D -0.006 ± 0.11, E 0.09 ± 0.08, F 0.004 ± 0.097, H 0.118 ± 0.12, I 0.081 ± 0.15, K -0.181 ± 0.12, L -0.126 ± 0.062, M -0.113 ± 0.084, N -0.162 ± 0.12, P -0.165 ± 0.084, R -0.527 ± 0.088, S 0.126 ± 0.065, T -0.007 ± 0.089, V -0.097 ± 0.067, W -0.266 ± 0.093
L50: A -0.822 ± 0.12, C -0.45 ± 0.11, D -1.04 ± 0.26, E -0.488 ± 0.13, F -0.716 ± 0.13, G -0.767 ± 0.096, H -0.732 ± 0.22, I -0.214 ± 0.1, K -0.719 ± 0.17, M -0.52 ± 0.13, N -1.06 ± 0.38, P -0.741 ± 0.14, Q -0.7 ± 0.13, R -0.82 ± 0.091, S -0.613 ± 0.094, T -0.704 ± 0.16, W -0.48 ± 0.11, Y -0.738 ± 0.17
A51: C -0.145 ± 0.11, D -0.388 ± 0.12, E -0.3 ± 0.1, G -0.346 ± 0.072, H -0.308 ± 0.28, I -0.703 ± 0.19, K -0.025 ± 0.12, L -0.323 ± 0.083, M -0.245 ± 0.14, N -0.237 ± 0.33, P -0.752 ± 0.16, Q -0.519 ± 0.13, R -0.087 ± 0.065, S -0.178 ± 0.078, T -0.306 ± 0.13, V -0.237 ± 0.097, W -0.175 ± 0.091, Y -0.124 ± 0.16
T52: A 0.085 ± 0.071, D 0.301 ± 0.11, G 0.038 ± 0.074, I 0.029 ± 0.12, K 0.335 ± 0.11, L -0.064 ± 0.057, M -0.218 ± 0.11, N -0.028 ± 0.15, P -0.486 ± 0.12, Q -0.202 ± 0.091, R 0.034 ± 0.062, S 0.008 ± 0.067
